In article PMC11662665, “Phosphorylation-mediated disassembly of C-terminal binding protein 2 tetramer impedes epigenetic silencing of pluripotency in mouse embryonic stem cells” (Nucleic Acids Research, 2024):
Values belong to the binder of their own block, whether it stands above or below them.

Legend:
[1] = biological target: T1, GST-CTBP2 (UniProt P56546 1-445); experiment: pull-down; recombinant truncated FLAG-Suz12 and GST-CTBP2 incubated in vitro; pull down with glutathione Sepharose; settings: both partners purified
T1 construct: also called GST-tagged Ctbp2; source: E. coli BL21 DE3 pLysS, purified (glutathione Sepharose 4B)

[2] = biological target: the molecule itself; experiment: pull-down; 1 ug GST-tagged and 1 ug His6-tagged recombinant Ctbp2, pulled down with GSH beads; 25 mM Tris-Cl pH 7.5, 0.1% NP-40, 150 mM NaCl, NADH, BSA, 10% glycerol, 4 C; for the phosphorylated form after in vitro phosphorylation with HA-Chk2

T1 sequence (P56546 whole entry, the tested form may be a part): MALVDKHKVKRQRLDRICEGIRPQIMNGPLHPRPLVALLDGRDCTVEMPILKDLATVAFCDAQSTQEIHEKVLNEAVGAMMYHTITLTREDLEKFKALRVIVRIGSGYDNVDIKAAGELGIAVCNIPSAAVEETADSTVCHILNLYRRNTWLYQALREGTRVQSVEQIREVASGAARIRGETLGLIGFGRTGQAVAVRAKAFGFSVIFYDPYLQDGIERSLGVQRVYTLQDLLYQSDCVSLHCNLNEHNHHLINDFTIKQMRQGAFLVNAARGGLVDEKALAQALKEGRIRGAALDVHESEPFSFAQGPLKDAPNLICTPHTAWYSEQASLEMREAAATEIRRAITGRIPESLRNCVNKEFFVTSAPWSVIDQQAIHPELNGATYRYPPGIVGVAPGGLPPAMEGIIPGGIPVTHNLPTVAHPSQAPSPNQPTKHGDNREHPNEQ

binding result [1]: binds
B1: FLAG-Suz12 1–138 (recombinant truncated Suz12, N-terminal region) (domain or fragment, human, UniProt Q15022 1-138, looked up)
chain: MAPQKHGGGGGGGSGPSAGSGGGGFGGSAAVAAATASGGKSGGGSCGGGGSYSASSSSSAAAAAGAAVLPVKKPKMEHVQADHELFLQAFEKPTQIYRFLRTRNLIAPIFLHRTLTYMSHRNSRTNIKRKTFKVDDML
notes: the methods call the cloned PRC2 components human

B2: GST- or His6-tagged recombinant CTBP2, wild type (the two copies of the in vitro self-binding assay) (natural protein)
chain: not shown
notes: Two differently tagged copies of one protein; each copy carries one tag; The same constructs stand singly as m31 (His6) and m33 (GST); also called recombinant wild-type Ctbp2; source: E. coli BL21 DE3 pLysS, purified (glutathione Sepharose 4B or Ni-NTA agarose)
binding result [2]: binds
